Experimental data: paper PMC10315472

Tests used:
AMSIN (actinomyces) = assay: SPR
[1] = biological target: emorisin (Emergomyces orientalis); assay: SPR

Row | Substance | Kd (AMSIN (actinomyces)) | Kd [1] | koff [1] | kon [1] | koff (AMSIN (actinomyces)) | kon (AMSIN (actinomyces))
1 | Spike protein of the SARS-CoV-2 Omicron variant (from UniProt P0DTC2) (natural protein) | 57.9 nM |  |  |  |  | 
2 | αRBD (from UniProt P0DTC2) (domain or fragment) | 37.4 nM |  |  |  |  | 
3 | βRBD (from UniProt P0DTC2 319-541) (domain or fragment) | 310 nM | 49.5 nM | 0.00561 s⁻¹ | 11400 M⁻¹ s⁻¹ | 0.00536 s⁻¹ | 17300 M⁻¹ s⁻¹
4 | γRBD (from UniProt P0DTC2 319-541) (domain or fragment) | 607 nM |  |  |  | 0.00545 s⁻¹ | 8970 M⁻¹ s⁻¹
5 | δRBD (from UniProt P0DTC2 319-541) (domain or fragment) | 76.6 nM | 31.6 nM | 0.00202 s⁻¹ | 64000 M⁻¹ s⁻¹ | 0.0038 s⁻¹ | 49600 M⁻¹ s⁻¹
6 | ζRBD (from UniProt P0DTC2) (domain or fragment) | 1450 nM |  |  |  |  | 
